Results on 19 sequences are retold here after the DeepSol protein solubility set.

The series can be described thus: soluble on expression in E. coli; label from the status in PepcDB or PDB records.
As for “MTRCPERPGFMPRLSSHHFSRSRLSAPLLASGARVKLLCAPAGSGKTALLAECLQQAPETCRVSWLPLSGGRHSPQGLCAALAQALGLERDDEATVLQHLAHLQAPAWIFIDDYCRVAAADLDLLLDRLLSLDNPQLTWWLGCRRRPLCNWPRLLLDDQLFELDGPALAFSQIEIEQLLQRLPQPLCAQTASRILQRSGGWCAGVRIALLEGSELTIQPCKPGRPNTLLEYLEHELFSVLPAELAQVWQVLAHLPRFNAELCEHLFGVGEGAQYLRTLQDMACFIEPWDGGGDWLQVFPPLARLMRDE”, the “soluble on expression in E. coli” value was “not soluble”. In the case of “MTRHSAVRQAIIAALKKTDDGSTTFFDGRPVVVEEDELPAVAVYLSDAQYTGPEVDGDIWSAVLHVEVFLKATAPDSALDEQMENRVYPALGSVAGLGDIIRTMSAQGYNYQRDDEMAMWGSADLSYDITYSM” it was “not soluble”; in that of “MTRNAPPGQESTDLAWLVTPAKDLVENFSIDVLKALAGYLEVIRQESEDTDNQVDAATTYRLFDFQRACRIIQGSCAVYGRKVDHVYELTISVVDLVENKGQDDGNTGSRRGAGRRKNFNLGSTNYDLADIDSLKQEALANFEKTVKEEKKSIDAVRMVENAEVIESQYERKSCLVAKPTQFMFKLNYGQLNRTDEQILNAKSRPDVIGKVKDFEIKKSKVKHDQQILYSHDCYRGNLDQFTLPGARWMPDNKELAANFGVADLEVELDLEQEHEKISAYGPFKDPLSGREVVPPPRWFIEQEAVRQNQEIQSRATSRAITIAAKTLRDSQGFGSQPTRLSQPFVERHRQSNHLNDFLSFVEGRVNKNRPSTHLTTGLVDMFVDNFGSVMQNDEPNTSRRPDENYAPMDFDDDFGGGGDDDDDDYIRNLSRRDEKRAPAPWDELDKNHIIWYTGDENLPVVSKPVKKITKFQPKPAEMLARKQRREEKINKSRRDEFMETHDYLQDYYYWRSAARINPIKDWKIESLRTAILAEKKRRIKEKTAKIREARIQNMQRKRTARVIPVEQFEPVTEDIPTSNRRTLGAEYDDVVDEDLAAEVELSMFGGGFDDDEEDVRPRGERPPMAPNNLEFDALQTDFDIPPAEYVPLRFEDIDDAELNSVINLPGNLLIDKALPLLKKFAENRTDREQMAYEMAKAYEDVDVAVSTLQEHVDKWHSRMEPILEEGETRKEYDVHAVGRAVIGQYDIEGGTKRLLDLVMDRPWYEISRYFLSCLFMCNVGNVMVSEDMELPLEERINSMKITLLKRDMHCEMFKEAGALDA”, “not soluble”; in that of “MTRSDRPYRGVEAAERLATRRRQSLSAGLDLLGSDQHDIAELTIRTICRRAGLSVRYFYESFTDKDEFVGRVFDWVVAELVATTQAAVTAVPAREQTRAGMANIVRTITADARVGRLLFSTQLANAVITRKRAESSALFAMLSGQHAVDTLHAPANDHVKAVAHFAVGGVGQTISAWLAGDVRLDPDQLVDQLAALLDELTDPNLSRPRVAATAAKSGANDPQPPEVAGQPPSSARPARRS”, “soluble”.

In the case of “MTSDGMDEWPTGRLLSTAARLVEHSWEDILRSQNMTHAGLICLHTIADRPASQRDIAKVSRVTDQTISRTIDRLERAGYVTRETDPLDERRKRVAITESGRAIYRRLLALEKEDAALTAAVGDVGPLREQLLLLVRSLGLPTRD”, the “soluble on expression in E. coli” value is “not soluble”. In the case of “MTSFTIPGLSDKKASDVADLLQKQLSTYNDLHLTLKHVHWNVVGPNFIGVHEMIDPQVELVRGYADEVAERIATLGKSPKGTPGAIIKDRTWDDYSVERDTVQAHLAALDLVYNGVIEDTRKSIEKLEDLDLVSQDLLIAHAGELEKFQWFVRAHLESAGGQLTHEGQSTEKGAADKARRKSA” it was “soluble”. In the case of “MTSMDNSARGQRHNEFADSAARIEAANDMSISAGRDVINKGSVLESGRDMSIQAGRDVTIAPTEVTNSLFSDSKHNSSDITQLGSTASAGRDLTVQAGRDISVIASQIDAKRDIAMAATENLTISSAADEEHSLSKSKKLTRQEDHVSQIAADLDAGGSVALQAGQNLAVISSRITAGKEAYLVAGDQLDILAAQDSDYSLYDKKKKGSFGAKKTKRDEITDVKNIGSEITTGGDLLLASGGDQKYQVAKLESGKDLTIDSGGAVTFEGVKDLHQESHEKSKSDLAWNSSKGKGNTDETLRQSELVAKGELAIRAVEGLKIDIKQVDQQSVSQTIDAMVKADPQLAWLKEAELRGDVDWRQVKEVHDSLIGTAVNAAVVAGLTSATSQAVISTVNNKGNLGAALKDVTSAESMKGYLVSGLAAGFAAGILDPAYGVSPENTAKATHGFDLGSVDGFTNYAGYTLAQGGFSAAANTAINGGSLTDNLAQAAISSAADAMSAGIYNKLGTKLEFSGLPSKLAAHALVGGLIAELAGGDFRSGALAAGANEAFVNLVGDKIFVGESHDKLLAMTSQLVGLTVAAAAGGTDKDQAVAGWVAQQATTFNYLEHSEKEAFIKEMLGCDTDKCAREKWEQGKFDEDSQANVQYANDIAGSQRARETRDRVLDSLGSILDMNCPTSACEGYKQLLMERSLGTLKNLNQVIKDWASVDQRLGLMAGAAVGGQANYKCGSTASRSAGVDLEHHHHHH” it was “soluble”; in that of “MTSMEEMLREAANEVLQSRIPPGYVLYPNYEQYWSHEHGMFYNPDTEQFYRPEDKTVYQLNAEGSEYVLVERRKPTYWASRSYRKRAIDLLGSAEFKKFDQNEVNICEIAFGMVDKVIKGEEMEKEKEYLRSIANNKVALMQHRINKVFKGNRRRKNPHRQYVANVDESSGHVEYTLQVDDYFDWEDAYEDNSDDEFSEKDEQAVLMHQEGFDQPPCMRVMDALRRLHIITISGGYLGSDRDCEIVVSNQLLPERCAEIVYSEEAQCYSIEKLEDACILQVNGNNVKTSSPVDLCQGDSILLSGERFDVHVHNGSNTCPGCEPGLQQGDDDIAPVTTVPAKNIRGEVARRKNLKQMMKSYGIRPDDVLSEPIRKRPATGPSEMNIHRSEAPGSSSDMYGSCAAKPMPEGQRKFDLPSTSAAVAAAAAPKPLDSGNVGFKLLKSMGWSEGQGLGKEKQGHVEPVATEVKNNRKGLGANEKEPPTKSYKDQVLEKTKQRFNEKR”, “not soluble”; in that of “MTSSSSPSQDTKRLAQTYPEGLRADALMEEDVAWNRGNDSQWDGEQFDRSDRAALRRVAGLSTELEDVTEVEYRQLRLERVVLVGVWTSGTVQDAENSLAELAALAETAGALVLDGVVQRRDKPDAATYIGSGKAEELRDVVLHTGADTVICDGELSPGQLIHLEDVVKVKVIDRTALILDIFAQHAKSREGKAQVALAQMQYMLPRLRGWGQSLSRQMGGGKGGGLATRGPGETKIETDRRRIREKMAKMRREIAEMKTGREIKRQERKRHKVPSVAIAGYTNAGKSSLLNRLTGAGVLVENALFATLDPTVRRAETPSGRLYTLADTVGFVRHLPHHLVEAFRSTMEEVGDSDLILHVVDGSHPVPEEQLAAVREVIRDVGATDVPEIVVINKADMADPLVLQRLLRIEKRAIAVSARTGQNIDQLLALIDNELPRPSVEIEALVPYTHGKLVARAHDEGEVISEEHTPEGTLLKVRVHEELAAELAPYVPAPLALEHHHHHH”, “not soluble”. In the case of “MTSVIPEQRNNPFYRDSATIASSDHTERGEWVTQAKCRNGDPDALFVRGAAQRRAAAICRHCPVAMQCCADALDNKVEFGVWGGLTERQRRALLRKKPHITNWAEYLAQGGEIAGV” it was “not soluble”; in that of “MTSVSGCGSVSLITNRSAFLGNGLQHRAVFLKPWSSSSLQSRSMVVEAKTKTSSEDRIARHSRIRKKVNGTTERPRLCVFRSNKHLYVQVIDDTKMHTLASASTKQKPISEEFDYTSGPTIEVAKKVGEVIAKSCLEKGITKVAFDRGGYPYHGRIEALAAAAREHGLQF”, “not soluble”; in that of “MTTAFFVAADWLAEHIDDPEIQILDARMAPPGQEHRDMAGEYRAGHIPGALFFDIEALSDRASPLPHMMPRPEAFAVAMRELGVRQDKHLVIYDEGNLFSAPRAWWMLRTFGAEKVSILAGGLAGWQRDEWLLREGEEAHEGGEFEAKFAPQAVVRLTDVLLASHEKTAQIVDARPAARFNAQADEPRPGLRRGHIPGALNVPWTELVYEGELKTTDELNEVFFSHGVSFDRPIIASCGSGVTAAVVVLALATLDVPDVTLYDGAWSEWGARTDLPVEPA”, “not soluble”. Turning to “MTTAVTQAIIDGFFDASNGDPFATLGMHETEQGIEIRTLLPDANRMVVIERESGKEITELDCVDERGFFVGVIPNCRQFFAYQLQVFWGNEAQIIEDPYRFHPMID”, the “soluble on expression in E. coli” value is given as “not soluble”. In the case of “MTTHLSNVAPDLQNYLNAIGEPEHPVLTRLREKTGHHRMGKMAIAREQAAVLVWLAKLIRAEKYLEIGVFTGYSSTALALALPEHGRITACDINVTFTDTARQVWNEAGVAHKISLHLQPALLTLDDLIAQGEAGSYDLALIDADKPPTPQYFERCLKLVRQGGIIAIDNILLNGRVMREAASDAPPSVGILKDFNQNLPNDPRIVPITLPVGDGLTLLLKK” it was “not soluble”; in that of “MTTLKLFDIEHAWGLPRKVSPRFGARLILRGLHLDYLHDRASFVGEFPPAIKQQFVEAFPAMVKQLERLVATGEIDTTEQHCVSIEHAGFTCEADTLGSHGYLYIAIYQTKAKPLTTSNLTITR”, “not soluble”; in that of “MTTLKVKQLANKKGLNILEDSIEINESGVDFQVAHVTEQNGDKWILRIPRRPESMRHALREKEALEIMKKHAAFQVPNWSIFSEELIAYKQLSGFPAATIDIEQQKYVWNFNEKNVPTEYYISLGKVLANVHSLSQQKFNNIGVEILTANELRTSMKQRMNRVKEQYHINQNLWDRWQAWLAEDSFWPSHVGVKHGDIHPGHILIDKKNNVTGLIDWTEVGIGDVSIDFTSHYLLFGKDGLTKLIHSYDNAGGKTWSRMDEHIIELLTTSSITVAEYAQVSGLKDMHEAAIHMLATEC”, “not soluble”.

Regarding “MTTSAMTAPDTRRQLQHVETLRRFLRGDSCFVHDLRGMMDYHDGLSRRQQRAFCRASRVLTDPEPIQSEAEGENKQFTEHTHKVVSFFIKSVFVFPYLVLPNCCQVSVDRSRVPETGGRWLLEHHHHHH”, the “soluble on expression in E. coli” value is reported as “not soluble”. In the case of “MTTVSNIHHASKPRLNTLLVTARDSPYDTTLPARTPVDFCRPGSQWRVMDIDLVLAPVDGSDQSERAAEYAIAVAERYDADLHLLFVIDERLHQDIDSGDVSATAIAEEHQAFTESIRDRFRDAHDGVFETSSATAFSETRLMQTPGSVVLDVAEDLDSDFIVVPREEGSEEAVGRAAIYVIEYASQPVLTV” it was “not soluble”; in that of “MTTVTVTTEIPPRDKMEDNSALYESTSAHIIEETEYVKKIRTTLQKIRTQMFKDEIRHDSTNHKLDAKHCGNLQQGSDSEMDPSCCSLDLLMKKIKGKDLQLLEMNKENEVLKIKLQASREAGAAALRNVAQRLFENYQTQSEEVRKKQEDSKQLLQVNKLEKEQKLKQHVENLNQVAEKLEEKHSQITELENLVQRMEKEKRTLLERKLSLENKLLQLKSSATYGKSCQDLQREISILQEQISHLQFVIHSQHQNLRSVIQEMEGLKNNLKEQDKRIENLREKVNILEAQNKELKTQVALSSETPRTKVSKAVSTSELKTEGVSPYLMLIRLRK”, “not soluble”.
